This note sets out measurements from patent US20140295520A1.

The target in series [1] is EutSMNLK (recombinant shell of EutS, EutM, EutN, EutL and EutK) (Salmonella enterica LT2) (UniProt Q9ZFV7). Nature of the series: cell-based or functional assay.
For series [2], the target named is EutMNLK (EutM, EutN, EutL and EutK co-expressed without EutS) (Salmonella enterica LT2). Nature of the series: cell-based or functional assay.
Series [3] has as its target EutS-G39V mutant (Salmonella enterica LT2). Put plainly: cell-based or functional assay.
The target in series [4] is EutS (recombinant EutS shell/compartment) (Salmonella enterica LT2) (UniProt Q9ZFV7). Put plainly: cell-based or functional assay.
In series [5] the test system is EutS (recombinant EutS shell/compartment).

On to “Enhanced Green Fluorescent Protein (EGFP)”, for which the % cells with green flourescent foci (E. coli C2566) in series [1] came out at 0.2%; in series [2], 0.1%; in series [3], 0.3%; in series [4], 0.5%. For the same substance, the % cells with green flourescent foci (E. coli JM109) stood at 1.8% in series [1], 0.8% in series [2], 2.9% in series [3] and 0.6% in series [4].

On to “EutC^1-19-BTL-2 fused to EGFP (modular cassette)”, for which, in series [5], the “fluorescent localization in E. coli” value is “Upon co-expression of EutS, the majority of the tagged lipase localizes to a compartment formed somewhat off-center in E. coli”.

On to EutC^1-19-EGFP, for which, in series [1], the % cells with green flourescent foci (E. coli C2566) was 84% and the % cells with green flourescent foci (E. coli JM109) amounted to 79%. Further, in series [4], the % cells with green flourescent foci (E. coli C2566) turned out to be 87% and the % cells with green flourescent foci (E. coli JM109) amounted to 84%.
